These results are taken from paper PMC2174279.

For one test, the target named is Bee1p-HA (S. cerevisiae). As to the kind of experiment: co-IP.
Test [1] has as its target Arc40p-HA (S. cerevisiae) (UniProt P38328). As to the kind of experiment: co-IP.
For test [2], the target named is Arc40p (LexA two-hybrid bait) (S. cerevisiae) (UniProt P38328). As to the kind of experiment: two-hybrid.
For test [3], the target named is Bee1p (1-633) (S. cerevisiae). As to the kind of experiment: two-hybrid.
For test [4], the target named is Bee1p (166-633) (S. cerevisiae). As to the kind of experiment: two-hybrid.
Test [5] deals with Arc19p (LexA two-hybrid bait) (S. cerevisiae) (UniProt P33204). Put plainly: two-hybrid.
The target in test [6] is Bee1p (1-165) (S. cerevisiae). As to the kind of experiment: two-hybrid.
Test [7] deals with peptide PRP2 (…), LexA bait. Put plainly: two-hybrid.
The target in test [8] is peptide PRP2-1 (…), LexA bait. As to the kind of experiment: two-hybrid.

For the substance “Myo3p (from UniProt P36006 1-1272) (natural protein)”, the percent of the total Myo3p in the extract coimmunoprecipitated (with Bee1p-HA (S. cerevisiae); in [1]) was 1% in each case.
Regarding “Myo3p-AD (1182-1271) (from UniProt P36006 1182-1271) (domain or fragment)”, in test [2], the LacZ expression (two-hybrid) came to 151 Miller units.
With “Myo3p-SH3(W1157S)-AD (1118-1271) (from UniProt P36006 1118-1271) (domain or fragment)”, in test [2], the LacZ expression (two-hybrid) is 366 Miller units.
The substance “Myo3p-SH3 (1118-1188) (from UniProt P36006 1118-1188) (domain or fragment)” returned a LacZ expression (two-hybrid) in test [3] of 1760 Miller units.
Consider “Myo3p(SH3-W1157S) (from UniProt P36006 1-1272) (natural protein)”, for which, in test [1], the percent coimmunoprecipitated is 0.1%.
In the case of “Myo3p-AD-32 (1239-1271) (from UniProt P36006 1239-1271) (domain or fragment)”, in test [2], the LacZ expression (two-hybrid) came to 25 Miller units.
In turn, “Myo3pΔAD (from UniProt P36006 1-1188) (domain or fragment)” gave a percent coimmunoprecipitated in the test with Bee1p-HA (S. cerevisiae) of 1%.
Turning to “Myo3p-SH3-AD (1118-1271) (from UniProt P36006 1118-1271) (domain or fragment)”, the LacZ expression (two-hybrid) in test [3] came to 715 Miller units; in test [4], 113 Miller units; in test [5], 152 Miller units; in test [2], 458 Miller units; in [6], 1200 Miller units; in test [7], 210 Miller units. In [8], this substance had a LacZ expression (two-hybrid) of 219 Miller units.
In turn, “Bee1p-WH2-AD (531-633) (domain or fragment)” displayed a LacZ expression (two-hybrid) in [2] of 18 Miller units.
